# Measurements: US20230158141A1 (YAFEI SHANGHAI BIOLOG MEDICINE SCIENCE AND TECHNOLOGY, published 2023)
# Residue numbers refer to the chain shown, from its start. Numbers in names are those of the source.
# T1: IL-10R1-Fc (UniProt Q13651 22-235, limits assumed)
# T1 sequence (looked up): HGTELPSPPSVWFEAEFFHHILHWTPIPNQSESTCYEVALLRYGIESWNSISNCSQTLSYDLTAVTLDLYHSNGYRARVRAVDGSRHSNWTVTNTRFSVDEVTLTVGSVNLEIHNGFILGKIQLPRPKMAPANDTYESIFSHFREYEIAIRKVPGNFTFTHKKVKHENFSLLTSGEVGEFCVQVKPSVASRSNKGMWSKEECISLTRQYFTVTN
# T2: IL-10R2-Fc/His (UniProt Q08334 20-220, limits assumed)
# T2 sequence (looked up): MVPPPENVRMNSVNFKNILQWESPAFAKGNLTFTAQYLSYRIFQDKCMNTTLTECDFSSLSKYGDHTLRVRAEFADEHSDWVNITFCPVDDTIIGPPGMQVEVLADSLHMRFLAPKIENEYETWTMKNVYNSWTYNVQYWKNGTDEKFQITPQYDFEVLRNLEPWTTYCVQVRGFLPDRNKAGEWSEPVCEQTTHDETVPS
# B1: anti-PD-1 antibody 2 HC Ala24Cys (antibody, human IgG4 S228P, kappa, V domains shown)
# VH: QVQLVESGGGVVQPGRSLRLDCKCSGITFSNSGMHWVRQAPGKGLEWVAVIWYDGSKRYYADSVKGRFTISRDNSKNTLFLQMNSLRAEDTAVYYCATNDDYWGQGTLVTVSS
# VL: EIVLTQSPATLSLSPGERATLSCRASQSVSSYLAWYQQKPGQAPRLLIYDASNRATGIPARFSGSGSGTDFTLTISSLEPEDFAVYYCQQSSNWPRTFGQGTKVEIKR
# modifications: arm on Cys24 as named in each row
# B2: anti-PD-1 antibody 2 HC Ala40Cys (antibody, human IgG4 S228P, kappa, V domains shown)
# VH: B1 VH with C24A, A40C
# VL: B1 VL
# modifications: arm on Cys40 as named in each row
# B3: anti-PD-1 antibody 2 HC Ala88Cys (antibody, human IgG4 S228P, kappa, V domains shown)
# VH: B1 VH with C24A, A88C
# VL: B1 VL
# modifications: arm on Cys88 as named in each row
# B4: anti-PD-1 antibody 2 HC Ala92Cys (antibody, human IgG4 S228P, kappa, V domains shown)
# VH: B1 VH with C24A, A92C
# VL: B1 VL
# modifications: arm on Cys92 as named in each row
# B5: anti-PD-1 antibody 2 HC Gly8Cys (antibody, human IgG4 S228P, kappa, V domains shown)
# VH: B1 VH with G8C, C24A
# VL: B1 VL
# modifications: arm on Cys8 as named in each row
# B6: anti-PD-1 antibody 2 HC Gly9Cys (antibody, human IgG4 S228P, kappa, V domains shown)
# VH: B1 VH with G9C, C24A
# VL: B1 VL
# modifications: arm on Cys9 as named in each row
# B7: anti-PD-1 antibody 2 HC Gly10Cys (antibody, human IgG4 S228P, kappa, V domains shown)
# VH: B1 VH with G10C, C24A
# VL: B1 VL
# modifications: arm on Cys10 as named in each row
# B8: anti-PD-1 antibody 2 HC Gly15Cys (antibody, human IgG4 S228P, kappa, V domains shown)
# VH: B1 VH with G15C, C24A
# VL: B1 VL
# modifications: arm on Cys15 as named in each row
# B9: anti-PD-1 antibody 2 HC Gly26Cys (antibody, human IgG4 S228P, kappa, V domains shown)
# VH: B1 VH with C24A, G26C
# VL: B1 VL
# modifications: arm on Cys26 as named in each row
# B10: anti-PD-1 antibody 2 HC Gly42Cys (antibody, human IgG4 S228P, kappa, V domains shown)
# VH: B1 VH with C24A, G42C
# VL: B1 VL
# modifications: arm on Cys42 as named in each row
# B11: anti-PD-1 antibody 2 HC Thr69Cys (antibody, human IgG4 S228P, kappa, V domains shown)
# VH: B1 VH with C24A, T69C
# VL: B1 VL
# modifications: arm on Cys69 as named in each row
# B12: IL-10 Ser31Cys-S48 (ligand, human, UniProt P22301 19-178, looked up)
# chain: SPGQGTQSENSCTHFPGNLPNMLRDLRDAFCRVKTFFQMKDQLDNLLLKESLLEDFKGYLGCQALSEMIQFYLEEVMPQAENQDPDIKAHVNSLGENLKTLRLRLRRCHRFLPCENKSKAVEQVKNAFNKLQEKGIYKAMSEFDIFINYIEAYMTMKIRN
# modifications: S48 on Cys 31
# notes: mature
# B13: IL-10 Thr100Cys-R4-7 (ligand, human, UniProt P22301 19-178, looked up)
# chain: B12 chain with C31S, T100C
# modifications: R4-7 on Cys 100
# notes: mature
# B14: anti-PD-1 antibody 1 light chain G28C (antibody, human IgG4 S228P, kappa, V domains shown)
# VH: QVQLVQSGVEVKKPGASVKVSCKASGYTFTNYYMYWVRQAPGQGLEWMGGINPSNGGTNFNEKFKNRVTLTTDSSTTTAYMELKSLQFDDTAVYYCARRDYRFDMGFDYWGQGTTVTVSS
# VL: EIVLTQSPATLSLSPGERATLSCRASKCVSTSGYSYLHWYQQKPGQAPRLLIYLASYLESGVPARFSGSGSGTDFTLTISSLEPEDFAVYYCQHSRDLPLTFGGGTKVEIKR
# notes: also called PD-1-Ab1-Gly28Cys; PD1 Ab-C28
# B15: anti-PD-1 antibody 1 light chain G33C (antibody, human IgG4 S228P, kappa, V domains shown)
# VH: B14 VH
# VL: B14 VL with C28G, G33C
# B16: anti-PD-1 antibody 1 light chain G61C (antibody, human IgG4 S228P, kappa, V domains shown)
# VH: B14 VH
# VL: B14 VL with C28G, G61C
# B17: anti-PD-1 antibody 1 light chain S26C (antibody, human IgG4 S228P, kappa, V domains shown)
# VH: B14 VH
# VL: B14 VL with S26C, C28G
# B18: anti-PD-1 antibody 1 light chain S30C (antibody, human IgG4 S228P, kappa, V domains shown)
# VH: B14 VH
# VL: B14 VL with C28G, S30C
# B19: anti-PD-1 antibody 1 light chain S32C (antibody, human IgG4 S228P, kappa, V domains shown)
# VH: B14 VH
# VL: B14 VL with C28G, S32C
# B20: anti-PD-1 antibody 1 light chain S35C (antibody, human IgG4 S228P, kappa, V domains shown)
# VH: B14 VH
# VL: B14 VL with C28G, S35C
# B21: anti-PD-1 antibody 1 light chain S56C (antibody, human IgG4 S228P, kappa, V domains shown)
# VH: B14 VH
# VL: B14 VL with C28G, S56C
# B22: anti-PD-1 antibody 1 light chain S60C (antibody, human IgG4 S228P, kappa, V domains shown)
# VH: B14 VH
# VL: B14 VL with C28G, S60C
# B23: anti-PD-1 antibody 1 light chain S95C (antibody, human IgG4 S228P, kappa, V domains shown)
# VH: B14 VH
# VL: B14 VL with C28G, S95C
# B24: anti-PD-1 antibody 2 light chain A34C (antibody, human IgG4 S228P, kappa, V domains shown)
# VH: B1 VH with C24A
# VL: B1 VL with A34C
# B25: anti-PD-1 antibody 2 light chain G57C (antibody, human IgG4 S228P, kappa, V domains shown)
# VH: B1 VH with C24A
# VL: B1 VL with G57C
# B26: anti-PD-1 antibody 2 light chain S26C (antibody, human IgG4 S228P, kappa, V domains shown)
# VH: B1 VH with C24A
# VL: B1 VL with S26C
# B27: anti-PD-1 antibody 2 light chain S28C (antibody, human IgG4 S228P, kappa, V domains shown)
# VH: B1 VH with C24A
# VL: B1 VL with S28C
# B28: anti-PD-1 antibody 2 light chain S30C (antibody, human IgG4 S228P, kappa, V domains shown)
# VH: B1 VH with C24A
# VL: B1 VL with S30C
# B29: anti-PD-1 antibody 2 light chain S31C (antibody, human IgG4 S228P, kappa, V domains shown)
# VH: B1 VH with C24A
# VL: B1 VL with S31C
# B30: anti-PD-1 antibody 2 light chain S52C (antibody, human IgG4 S228P, kappa, V domains shown)
# VH: B1 VH with C24A
# VL: B1 VL with S52C
# B31: anti-PD-1 antibody 2 light chain S91C (antibody, human IgG4 S228P, kappa, V domains shown)
# VH: B1 VH with C24A
# VL: B1 VL with S91C
# B32: anti-PD-1 antibody 2 light chain S92C (antibody, human IgG4 S228P, kappa, V domains shown)
# VH: B1 VH with C24A
# VL: B1 VL with S92C
# B33: anti-PD-1 antibody 2 light chain T56C (antibody, human IgG4 S228P, kappa, V domains shown)
# VH: B1 VH with C24A
# VL: B1 VL with T56C
# B34: anti-PD-1 antibody 2 light chain T97C (antibody, human IgG4 S228P, kappa, V domains shown)
# VH: B1 VH with C24A
# VL: B1 VL with T97C
# Target: T3, PD-1 (UniProt Q15116 25-167, limits assumed)
# Test: ELISA; S9 on the Cys
row,Binder,"binding activity, % of wild type [%]"
1,B1,45.6
2,B2,50.3
3,B3,46.8
4,B4,64.6
5,B5,78.3
6,B6,87.4
7,B7,69.3
8,B8,32.5
9,B9,31.8
10,B10,63.6
11,B11,78.6

# Target: T3, PD-1
# Test: ELISA; S13 on the Cys
# T3 sequence (Q15116 25-167 limits assumed): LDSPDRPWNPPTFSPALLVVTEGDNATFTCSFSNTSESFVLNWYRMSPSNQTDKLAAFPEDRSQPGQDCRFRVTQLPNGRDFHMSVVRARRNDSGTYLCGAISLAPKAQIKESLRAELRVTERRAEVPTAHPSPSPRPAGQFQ
row,Binder,"binding activity, % of wild type [%]"
1,B1,32.3
2,B2,37.2
3,B3,27
4,B4,15
5,B5,34.2
6,B6,24.6
7,B8,21.5
8,B9,11.7
9,B10,29.8

# Target: T1, IL-10R1-Fc
# Test: ELISA, IL-10R1-Fc coated
Binder,Decreased fold of binding to ligand after Conjugating with S48 [fold],Binding recovery (>60%) [%]
B12,39,–
B13,–,99.3

# Target: T3, PD-1
# Test: ELISA; Cys mutant, no arm
row,Binder,"binding activity, % of wild type [%]"
1,B1,99.6
2,B2,85.3
3,B3,84.3
4,B4,85
5,B5,93.2
6,B6,97.8
7,B8,85.6
8,B9,95.4
9,B10,83.4

# Target: T2, IL-10R2-Fc/His
# Test: ELISA, IL-10R2-Fc/His coated
Binder,Decreased fold of binding to ligand after Conjugating with S48 [fold],Binding recovery (>60%) [%]
B12,7,–
B13,–,90.7

# Target: PD-1 (UniProt Q15116 25-167, limits assumed)
# Test: ELISA, OD mutant/OD WT; A=90-110%
# Target sequence in this assay (Q15116 25-167 limits assumed): as above
row,Binder,binding activity (OD after mutation/OD wild type) [%]
1,B14,90 to 110
2,B15,90 to 110
3,B16,90 to 110
4,B17,90 to 110
5,B18,90 to 110
6,B19,90 to 110
7,B20,90 to 110
8,B21,90 to 110
9,B22,90 to 110
10,B23,90 to 110
11,B24,90 to 110
12,B25,90 to 110
13,B26,90 to 110
14,B27,90 to 110
15,B28,90 to 110
16,B29,90 to 110
17,B30,90 to 110
18,B31,90 to 110
19,B32,90 to 110
20,B33,90 to 110
21,B34,90 to 110
